This note sets out measurements from paper PMC7577485, “An intrinsic mechanism for coordinated production of the contact-dependent and contact-independent weapon systems in a soil bacterium” (PLoS Pathogens, 2020).

The target in data set [1] is T1, GST-Clp (Clp) (Lysobacter enzymogenes, UniProt Q7WZ07).
T1 construct: labelled with NT-647-NHS for MST
T1 sequence (Q7WZ07 1-229): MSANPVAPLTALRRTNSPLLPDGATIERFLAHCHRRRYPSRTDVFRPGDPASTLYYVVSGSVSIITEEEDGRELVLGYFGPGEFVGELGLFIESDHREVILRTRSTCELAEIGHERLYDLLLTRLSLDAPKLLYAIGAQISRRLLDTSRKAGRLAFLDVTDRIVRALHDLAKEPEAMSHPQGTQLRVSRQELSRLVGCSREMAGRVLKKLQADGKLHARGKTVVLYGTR
Briefly: microscale thermophoresis, NT-647-labelled GST-Clp. To be noted: 25 °C; 10 μM labelled protein (130 mM NaHCO3, 50 mM NaCl); no Hcp; protein concentration above Kd. Format: binding. On the technique in general: MST reads how a fluorescent partner responds to local heating, with and without ligand.

In data set [2] the target is GST-Clp (Lysobacter enzymogenes) (UniProt Q7WZ07). Briefly: MST; 10 μM NT-647-NHS labelled GST-Clp or GST in label buffer (130 mM NaHCO3, 50 mM NaCl) titrated with unlabelled Hcp-His6 in PBS; Monolith NT.115, 25°C, 80% MST power, 20% LED power.
The subject of data set [3] is Clp (Lysobacter enzymogenes OH11). Briefly: MST. To be noted: MST: 0.5 uM FAM-DNA, Clp in PBS, 25 C.

Broadly, the Kd is the equilibrium constant for the complex coming apart. A low value points to a tighter complex. Consider `Nc1nc2c(ncn2[C@@H]2O[C@@H]3COP(=O)(O)O[C@H]4[C@@H](O)[C@H](n5cnc6c(=O)[nH]c(N)nc65)O[C@@H]4COP(=O)(O)O[C@H]3[C@H]2O)c(=O)[nH]1` [c-di-GMP], for which the affinity in data set [1], expressed as Kd, was 1.5 µM.
With Hcp-His6 (natural protein), the Kd in data set [2] was found to be 1.51 µM.
In turn, PA site probe, HSAF operon promoter yielded a Kd in data set [3] of 0.39 µM.
